Results reported in patent publication US12643935B2, “PD-L1 binding peptides” (UNIVERSITY OF SOUTHERN CALIFORNIA, priority 2020, dated 2026).
“Also recorded” adds a separate entry of the source. Blank lines part the entries; values can stand above or below the substance they belong to. Where no end group is shown, it is not given here. [ ]: non-standard residue; d: D form. NMeNle = CCCC[C@H](NC)C(=O)O; NMeA = CN[C@@H](C)C(=O)O

Legend:
hPD-L1 [1] = target: T1, hPD-L1 (Homo sapiens, UniProt Q9NZQ7); assay: Radioactive binding assay of second-generation clones on immobilized human PD-L1; set-up: target for immobilization and selection, the extracellular domain of hPD-L1 (from A18 to T239); hexahistidine tag (C); settings: 22° C., 2.5 or 12.5 pmol immobilized PD-L1
hPD-L1 [2] = target: T1, hPD-L1; assay: Binding of second-generation fusions after RNase treatment and in 25% human serum; set-up: target for immobilization and selection, the extracellular domain of hPD-L1 (from A18 to T239); hexahistidine tag (C); settings: 22° C., 25 pmol PD-L1; for binding to hPD-L1 after RNase treatment: RNase A 30 min 37° C.; for binding to hPD-L1 in human serum: RNase-treated fusions in 25% human serum in DMEM
Method: The sequences identified from Sanger sequencing (A,B,C,D) were tested under binding conditions modified to be similar to physiological conditions and compared to the wildtype sequence (S) (FIG. 14). Sequences were prepared as fusions in standard blocking buffer, as RNase-treated fusions (RNase A treatment for 30 min. at 37° C.) in standard blocking buffer, or as RNase-treated fusions in 25% human serum in DMEM. Binding was measured at 22° C. with 0 and 25 pmol biotinylated PD-L1.

hPD-L1 [3] = settings: known peptides; cited from earlier work
hPD-L1 [4] = target: T1, hPD-L1; assay: Radiolabeled [35S] peptide binding assay on immobilized hPD-L1; set-up: designed from A18 to T239 with a methionine added to the N-terminus; hexahistidine tag (C); made in house; settings: for hPD-L1 binding of SPAM alanine mutant normalized to SPAM: [35S]-labeled variants, n=3
Method: [^35S]-labeled peptides were translated as described above by including 2 μCi labeled methionine (Perkin Elmer) per 10 pmol of template in the translation reaction. Each peptide was tested with a […] (for X9-library derived peptides) (SEQ ID NO: 11) or a […] (for X17-library derived peptides) (SEQ ID NO: 12) C-terminal sequence. […] The supernatant was removed and was counted. The beads were subsequently washed three times with 1 mL of blocking buffer and the washes were also counted. Finally, the beads were resuspended in 1 mL of blocking buffer and were counted separately. The ratio of the counts remaining on the beads to the total counts added to the binding reaction (the sum of the counts for supernatant, washes, and beads) was calculated to determine the percent bound.

- binding to immobilized human PD-L1 relative to parental SPAM (S) (hPD-L1 [1]): better binding than the parental SPAM
Substance: MWSITDHNLNKFWILHYATKHG
- binding to hPD-L1 after RNase treatment (hPD-L1 [2]): significant net binding; also recorded: show binding
- binding to hPD-L1 in human serum (hPD-L1 [2]): significant net binding; also recorded: show binding

- binding to immobilized human PD-L1 relative to parental SPAM (S) (hPD-L1 [1]): better binding than the parental SPAM
Substance: MYSLNDHNLNKFWILHFAVNQM [Peptide 5]

Substance: WHFSYNWRWLPP [CLP003]
- IC50 (hPD-L1 [3]): 2220 nM
- Kd (hPD-L1 [3]): 117 nM

- hPD-L1 binding of SPAM alanine mutant normalized to SPAM (hPD-L1 [4]): completely abolished hPD-L1 binding
Substance: D6A: SPAM variant, alanine substituted at position 6 (MPIFLAHILNKFWILHYAGSGSSGHHHHHHSS) [Peptide D6A]

Substance: SGQYASYHCWCWRDPGRSGGSK [TPP-1]
- Kd (hPD-L1 [3]): 95 nM

- hPD-L1 binding of SPAM alanine mutant normalized to SPAM (hPD-L1 [4]): completely abolished hPD-L1 binding
Substance: N10A: SPAM variant, alanine substituted at position 10 (MPIFLDHILAKFWILHYAGSGSSGHHHHHHSS) [Peptide N10A]

- hPD-L1 binding of SPAM alanine mutant normalized to SPAM (hPD-L1 [4]): little or no significant influence
Substance: L5A: SPAM variant, alanine substituted at position 5 (MPIFADHILNKFWILHYAGSGSSGHHHHHHSS) [Peptide L5A]

- hPD-L1 binding of SPAM alanine mutant normalized to SPAM (hPD-L1 [4]): little or no significant influence
Substance: L9A: SPAM variant, alanine substituted at position 9 (MPIFLDHIANKFWILHYAGSGSSGHHHHHHSS) [Peptide L9A]

- hPD-L1 binding of SPAM alanine mutant normalized to SPAM (hPD-L1 [4]): little or no significant influence
Substance: 13A: SPAM variant, alanine substituted at position 3 (MPAFLDHILNKFWILHYAGSGSSGHHHHHHSS) [Peptide 13A]

Substance: MYTLTDHILNKFWIMHYARNPT
- binding to immobilized human PD-L1 relative to parental SPAM (S) (hPD-L1 [1]): comparable binding to the most frequent sequences; also recorded: better binding than the parental SPAM
- binding to hPD-L1 after RNase treatment (hPD-L1 [2]): significant net binding; also recorded: show binding
- binding to hPD-L1 in human serum (hPD-L1 [2]): significant net binding; also recorded: show binding

- binding to immobilized human PD-L1 relative to parental SPAM (S) (hPD-L1 [1]): better binding than the parental SPAM
Substance: MYSHNDHNLNKFWILHFAVNQM [Peptide B]
- binding to hPD-L1 after RNase treatment (hPD-L1 [2]): significant net binding; also recorded: show binding
- binding to hPD-L1 in human serum (hPD-L1 [2]): significant net binding; also recorded: show binding

- hPD-L1 binding of SPAM alanine mutant normalized to SPAM (hPD-L1 [4]): completely abolished hPD-L1 binding
Substance: H16A: SPAM variant, alanine substituted at position 16 (MPIFLDHILNKFWILAYAGSGSSGHHHHHHSS) [Peptide H16A]

Substance: MEFTSDHSLNKFIILHYANNPF [Peptide C]
- binding to immobilized human PD-L1 relative to parental SPAM (S) (hPD-L1 [1]): comparable binding to the most frequent sequences; also recorded: better binding than the parental SPAM
- binding to hPD-L1 after RNase treatment (hPD-L1 [2]): significant net binding; also recorded: show binding
- binding to hPD-L1 in human serum (hPD-L1 [2]): significant net binding; also recorded: show binding

- hPD-L1 binding of SPAM alanine mutant normalized to SPAM (hPD-L1 [4]): completely abolished hPD-L1 binding
Substance: F12A: SPAM variant, alanine substituted at position 12 (MPIFLDHILNKAWILHYAGSGSSGHHHHHHSS) [Peptide F12A]

Substance: NYSKPTDRQYHF [D-PPA-1]
- Kd (hPD-L1 [3]): 510 nM

- binding to immobilized human PD-L1 relative to parental SPAM (S) (hPD-L1 [1]): better binding than the parental SPAM
Substance: MYTSTDHILNKFLILHESLQST [Peptide 6]

- binding to immobilized human PD-L1 relative to parental SPAM (S) (hPD-L1 [1]): better binding than the parental SPAM
Substance: MWSRSDHNLNKFWILHYSANPS [Peptide 7]

- hPD-L1 binding of SPAM alanine mutant normalized to SPAM (hPD-L1 [4]): completely abolished hPD-L1 binding
Substance: K11A: SPAM variant, alanine substituted at position 11 (MPIFLDHILNAFWILHYAGSGSSGHHHHHHSS) [Peptide K11A]

Substance: Cyclo[(AcPhe)(NMePhe)(NMeNle)(Sar)DV(NMePhe)Y(Sar)WYLC-Gly-NH2 [Peptide-71]
- EC50 (hPD-L1 [3]): 293 nM
- IC50 (hPD-L1 [3]): 7 nM

- binding to immobilized human PD-L1 relative to parental SPAM (S) (hPD-L1 [1]): better binding than the parental SPAM
Substance: MYTQTDHTLNKFLIMHEAFNST [Peptide 3]

- hPD-L1 binding of SPAM alanine mutant normalized to SPAM (hPD-L1 [4]): completely abolished hPD-L1 binding
Substance: 114A: SPAM variant, alanine substituted at position 14 (MPIFLDHILNKFWALHYAGSGSSGHHHHHHSS) [Peptide 114A]

- hPD-L1 binding of SPAM alanine mutant normalized to SPAM (hPD-L1 [4]): completely abolished hPD-L1 binding
Substance: H7A: SPAM variant, alanine substituted at position 7 (MPIFLDAILNKFWILHYAGSGSSGHHHHHHSS) [Peptide H7A]

Substance: HYPFRPHANQAS [CLP001]
- Kd (hPD-L1 [3]): 534 nM

- binding to immobilized human PD-L1 relative to parental SPAM (S) (hPD-L1 [1]): better binding than the parental SPAM
Substance: MYSRVDHNLNKFWILHQALKSN [Peptide 8]

- binding to heavily loaded hPD-L1 beads (hPD-L1 [4]; streptavidin agarose beads loaded with 1.1 μM hPD-L1 (1,100 pmol)): some binding
Substance: MRIFAVFIFMTYWHLLNA [hPD-L1 signal peptide]

- hPD-L1 binding of SPAM alanine mutant normalized to SPAM (hPD-L1 [4]): little or no significant influence
Substance: 18A: SPAM variant, alanine substituted at position 8 (MPIFLDHALNKFWILHYAGSGSSGHHHHHHSS) [Peptide 18A]

- hPD-L1 binding of SPAM alanine mutant normalized to SPAM (hPD-L1 [4]): little or no significant influence
Substance: F4A: SPAM variant, alanine substituted at position 4 (MPIALDHILNKFWILHYAGSGSSGHHHHHHSS) [Peptide F4A]

- hPD-L1 binding of SPAM alanine mutant normalized to SPAM (hPD-L1 [4]): completely abolished hPD-L1 binding
Substance: W13A: SPAM variant, alanine substituted at position 13 (MPIFLDHILNKFAILHYAGSGSSGHHHHHHSS) [Peptide W13A]

Substance: KHAHHTHNLRLP [D-PPA-2]
- Kd (hPD-L1 [3]): 1130 nM

Substance: WHRSYYTWNLNT [CLP002]
- IC50 (hPD-L1 [3]): 2170 nM
- Kd (hPD-L1 [3]): 366 nM

- hPD-L1 binding of SPAM alanine mutant normalized to SPAM (hPD-L1 [4]): completely abolished hPD-L1 binding
Substance: A18: SPAM variant, glycine substituted for alanine at position 18 (MPIFLDHILNKFWILHYGGSGSSGHHHHHHSS; not fully specified) [Peptide A18]

- hPD-L1 binding of SPAM alanine mutant normalized to SPAM (hPD-L1 [4]): completely abolished hPD-L1 binding
Substance: L15A: SPAM variant, alanine substituted at position 15 (MPIFLDHILNKFWIAHYAGSGSSGHHHHHHSS) [Peptide L15A]

Substance: Cyclo[(AcPhe)NMeAla)NPHLSWSW(NMeNle)(NMeNle)RC]Gly-NH2 (Ac-F[NMeA]NPHLSWSW[NMeNle][NMeNle]RCG-NH2; bridge (positions not given here); also: cyclic, ring from residue 1 to Cys 14, linkage type not given here) [Peptide-57]
- EC50 (hPD-L1 [3]): 566 nM
- IC50 (hPD-L1 [3]): 9 nM

- binding to immobilized human PD-L1 relative to parental SPAM (S) (hPD-L1 [1]): better binding than the parental SPAM
Substance: MKHSTDHVLNKFYIMHYTANPN [Peptide 9]

- binding to immobilized human PD-L1 relative to parental SPAM (S) (hPD-L1 [1]): better binding than the parental SPAM
Substance: MYTDADHILNKFLIMHYARNQQ [Peptide 1]

Substance: DYHDPSLPTLRK [CLP004]
- IC50 (hPD-L1 [3]): 1170 nM
- Kd (hPD-L1 [3]): 544 nM

- hPD-L1 binding of SPAM alanine mutant normalized to SPAM (hPD-L1 [4]): decreased levels of hPD-L1 binding
Substance: Y18A: SPAM variant, alanine substituted for tyrosine (position 17 of SPAM) (MPIFLDHILNKFWILHAAGSGSSGHHHHHHSS) [Peptide Y18A]

- hPD-L1 binding of SPAM alanine mutant normalized to SPAM (hPD-L1 [4]): decreased levels of hPD-L1 binding
Substance: P2A: SPAM variant, alanine substituted at position 2 (MAIFLDHILNKFWILHYAGSGSSGHHHHHHSS) [Peptide P2A]
